Source: patent publication US20130345115A1

Assays:
[1] = molecular target: (Δ1-28) H4 nucleosome (mononucleosome with FLAG-HA-tagged tailless human H4 lacking the first 28 amino acids) (human; human (293T cells)) (UniProt P62805); test: MudPIT, co-purification
[2] = molecular target: Wild type H4 nucleosome (mononucleosome with FLAG-HA-tagged wild type human H4) (human; human (293T cells)) (UniProt P62805); test: MudPIT, co-purification

Substance | amino acid coverage [1] [%] | peptide count [1] [peptides] | amino acid coverage [2] [%] | peptide count [2] [peptides]
histone cluster 1, H1a (HIST1H1A) (from UniProt Q02539 2-215) | 11.8 | 2 | 11.2 | 2
suppressor of Ty 16 homolog (S. cerevisiae) (from UniProt Q9Y5B9 2-1047) | 21.6 | 12 | 17.2 | 12
nucleolin (from UniProt P19338 2-710) | 16.3 | 8 | 12 | 6
euchromatic histone-lysine N-methyltransferase 2 (G9a) (from UniProt Q96KQ7 2-1210) (enzyme) |  | 0 | 4 | 2
histone cluster 1, H1d (HIST1H1D) (from UniProt P16402 2-221) | 6.4 | 1 | 8.6 | 1
histone deacetylase 1 (from UniProt Q13547 1-482) (enzyme) |  | 0 | 12.9 | 5
Snf2-related CREBBP activator protein (from UniProt Q6ZRS2 1-3230) | 1.9 | 3 |  | 
damage-specific DNA binding protein 1, 127 kDa (from UniProt Q16531 2-1140) | 3.7 | 2 | 5.4 | 3
WD repeat domain 77 (from UniProt Q9BQA1 1-342) | 11.4 | 2 |  | 
Histone H2B | 59.4 | 5 | 54.7 | 5
RuvB-like 1 (E. coli) (from UniProt Q9Y265 1-456) | 21.3 | 8 | 19.1 | 7
metal response element binding transcription factor 2 (from UniProt Q9Y483 1-593) |  |  | 4.6 | 2
poly (ADP-ribose) polymerase 1 (from UniProt P09874 2-1014) (enzyme) | 44.2 | 23 | 41.3 | 21
SWI/SNF related, matrix associated, actin dependent regulator of chromatin, subfamily a, member 5 (from UniProt O60264 2-1052) | 28.3 | 13 | 20 | 9
X-ray repair complementing defective repair in Chinese hamster cells 5 (from UniProt P13010 2-732) | 5.3 | 2 | 4.4 | 2
methyl CpG binding protein 2 (Rett syndrome) (from UniProt P51608 1-486) | 3.1 | 1 | 12.3 | 5
Histone H2A | 74.1 | 6 | 63.1 | 5
histone cluster 1, H1b (HIST1H1B) (from UniProt P16401 2-226) | 12.8 | 2 | 12.5 | 2
mediator of DNA-damage checkpoint 1 (from UniProt Q14676 1-2089) | 18.4 | 4 |  | 
histone cluster 1, H1e (HIST1H1E) (from UniProt P10412 2-219) | 11.8 | 2 | 6.2 | 1
X-ray repair complementing defective repair in Chinese hamster cells 6 (from UniProt P12956 2-609) | 3.2 | 1 | 5.7 | 2
death-domain associated protein (from UniProt Q9UER7 1-740) | 2.4 | 1 |  | 
topoisomerase (DNA) I (from UniProt P11387 2-765) (enzyme) | 4.2 | 3 | 7.4 | 5
chromobox homolog 1 (HP1 beta homolog Drosophila) (from UniProt P83916 1-185) | 22.8 | 3 | 17.3 | 2

Substance | amino acid coverage [1] [%] | peptide count [1] [peptides] | amino acid coverage [2] [%] | peptide count [2] [peptides]
transcription factor 20 (AR1) (from UniProt Q9UGU0 1-1960) |  |  | 2.4 | 3
remodeling and spacing factor 1 (from UniProt Q96T23 1-1441) | 11.7 | 10 | 12.2 | 12
chromodomain helicase DNA binding protein 4 (from UniProt Q14839 1-1912) | 0.6 | 1 | 1.2 | 2
TATA box binding protein-associated factor, 135 kDa (from UniProt O00268 1-1085) |  |  | 6.6 | 5
ADP-ribosylation factor 1 (from UniProt P84077 2-181) | 8.8 | 1 |  | 
histone H2AX (from UniProt P16104 2-143) | 8.4 | 1 | 13.7 | 2
histone cluster 1, H1c (HIST1H1C) (from UniProt P16403 2-213) | 12.3 | 2 | 10.3 | 2
chromobox homolog 5 (HP1 alpha homolog, Drosophila) (from UniProt P45973 1-191) | 21.4 | 3 | 21.4 | 3
SWI/SNF related, matrix associated, actin dependent regulator of chromatin, subfamily a, member 1 (from UniProt P28370 1-1042) | 19.2 | 9 | 24.9 | 11
thyroid hormone receptor-associated protein complex component (from UniProt Q9Y2W1 2-955) |  |  | 3.4 | 2
Histone H3 | 89.6 | 7 | 82.6 | 6
macroH2A1.1 and macroH2A1.2 (from UniProt O75367 1-369) | 48.2 | 10 | 55.1 | 11
RuvB-like 2 (E. coli) (from UniProt Q9Y230 2-463) | 16.3 | 8 | 13.4 | 5
SWI/SNF complex 170 KDa subunit (from UniProt Q8TAQ2 1-1214) |  |  | 4.3 | 3
protein arginine methyltransferase 5 (from UniProt O14744 2-637) (enzyme) | 23.8 | 9 | 21.8 | 9
structure specific recognition protein 1 (from UniProt Q08945 2-709) | 11.9 | 7 | 15.8 | 9
RAD23 homolog B (S. cerevisiae) (from UniProt P54727 1-409) | 8.9 | 1 |  | 
H1 histone family, member 0 (H1F0) (from UniProt P07305 2-194) | 16.2 | 2 | 21.2 | 3
EuHMT1 (from UniProt Q9H9B1 2-1298) (enzyme) |  | 0 | 5.7 | 3
chromobox homolog 3 (HP1 gamma homolog, Drosophila) (from UniProt Q13185 2-183) | 14.7 | 2 | 13.2 | 2
chromatin assembly factor 1, subunit A (from UniProt Q13111 1-956) | 4.9 | 3 | 5.5 | 3
anti-silencing function 1 homolog B (from UniProt Q9NVP2 1-202) | 18.8 | 2 |  | 
suppressor of zeste 12 homolog (Drosophila) (from UniProt Q15022 1-739) | 1.4 | 1 | 5.1 | 3
